Experimental data: publication doi:10.1101/2024.03.07.583849 (bioRxiv, 2024)
Where “and” joins values, the source holds several entries; their conditions need not be identical. Equal entries are not always repeated.

Biological target: the molecule itself
Test: SEC

B1: Chlamydomonas reinhardtii alpha-amylase 2 (AMA2), recombinant full-length enzyme (enzyme, UniProt A0A2K3DGK5 1-706, looked up)
chain: MDRSLLSRTSPRMQLGRPQQLPPPTVPLAQVPRLQRRCVVGSRVCQPVVAVRPGRASAGRGGRLVVSSVDMSNSPLSSMDAGEGLDIMFDNNSDAECTVVTVEGKDKAHLLMSLTGGFSSAGLTVISASITSDDGRVLDVFRVQTADGKKVPEEQFPSVREHILSVTATSSRSSMPAIYGIVAAAEVERLKPLRSQSTQNDVDALELAAAEMTQAVAELVATERDIIRMRASNADARTLQTKEANRTEAAAGLERKMAAMQAVLAARRNLATEPEKPKSPTEKLLETLKPPTPMRAAAGAGSGSGSEILLQAFNWESHRQKLYKQLMGRVKDISDAGFTGVWMPPPSDSVSPQGYLPRDLYSLDSAYGSEAELRELIAAFHQNNIKVIADIVVNHRCANSQGSDGKWNKFGGRLAWDASAICSNNPSFGGRGNPKQGDDYAAAPNIDHSQERIRNDIVQWMKYLRNSIGFDGWRFDFVRGYLGSYCKQYIDETVPAMAFGEYWDSCEYTDGVLNYNQDAHRQRTVNWCDSTGGTSAAFDFTTKGILQEAVGRREYWRLVDSQGRPPGVMGMWPSRAITFIDNHDTGSTLNHWPFPSRNLPEGYAYILTHPGTPCVFYDHFYQEENNLRKIILDLLKVRRRNGLNARSKVVMKKSAADVYAAMIDDKVAVKLGPGDWSPNQSGIKVNGKELKVAASGFQFAVWEGQH
  stoichiometry N: 2 and 4
